One protein from publication doi:10.1101/871707 (bioRxiv, 2019) can be followed below.

This series concerns the molecule itself. In words: cryo-EM structure.

B1: human SEMA6A soluble recombinant extracellular domain (receptor)
chain: GFPEDSEPISISHGNYTKQYPVFVGHKPGRNTTQRHRLDIQMIMIMNGTLYIAARDHIYTVDIDTSHTEEIYCSKKLTWKSRQADVDTCRMKGKHKDECHNFIKVLLKKNDDALFVCGTNAFNPSCRNYKMDTLEPFGDEFSGMARCPYDAKHANVALFADGKLYSATVTDFLAIDAVIYRSLGESPTLRTVKHDSKWLKEPYFVQAVDYGDYIYFFFREIAVEYNTMGKVVFPRVAQVCKNDMGGSQRVLEKQWTSFLKARLNCSVPGDSHFYFNILQAVTDVIRINGRDVVLATFSTPYNSIPGSAVCAYDMLDIASVFTGRFKEQKSPDSTWTPVPDERVPKPRPGCCAGSSSLERYATSNEFPDDTLNFIKTHPLMDEAVPSIFNRPWFLRTMVRYRLTKIAVDTAAGPYQNHTVVFLGSEKGIILKFLARIGNSGFLNDSLFLEEMSVYNSEKCSYDGVEDKRIMGMQLDRASSSLYVAFSTCVIKVPLGRCERHGKCKKTCIASRDPYCGWIKEGGACSHLSPNSRLTFEQDIERGNTDGLGDCHNSFVALNGHSSSLLPSTTTSDSTAQEGYESRGGMLDWKHLLDSPDSTDPLGAVSSHNHQDKKGVIRESYLKGHDQLVPVT
notes: also called SEMA6A rECD; recombinant SEMA6A ectodomain
For B1, the stoichiometry N (commonly the number of molecules, sites or subunits per partner or assembly) amounted to 2.
